Test results from article doi:10.1101/2024.07.08.601072.

Target: H2A-H2B dimers (yeast) (yeast) (UniProt P04911)
Experiment: native gel or EMSA

Kd: 160 to 330 nM
Substance: Purified Tom1p (Tom1p-Protein A after Protein A removal) (from UniProt Q03280 1-3268) (enzyme)
